According to publication PMC3792040, “Nectin-3 (CD113) Interacts with Nectin-2 (CD112) to Promote Lymphocyte Transendothelial Migration” (PLoS ONE, 2013):

Molecular target: T1, soluble Nectin-3 (Nec3-Fc) (human, UniProt Q9NQS3 58-404, biotin (the soluble copy in the in vitro binding assay: 'Biotinylated Nec3-Fc'))
T1 construct: Nectin-3 (CD113), human, recombinant soluble form fused to Fc; Probably the extracellular domain; Biotinylated as analyte in the ELISA, not biotinylated when captured in the ELISA or used on cells; also called CD113; source: COS cells, transfected, purified from supernatants on Affi-Gel protein A
Test: ELISA; Fc proteins (10^-7 M) captured on wells by goat anti-human Fc, 2 h 37 °C; free anti-Fc blocked with human immunoglobulin; biotinylated Nec3-Fc (10^-7 M) incubated 2 h at 37 °C in the absence of Ca2+; streptavidin peroxidase, ABTS
Conditions: both partners purified

T1 sequence (Q9NQS3 58-404): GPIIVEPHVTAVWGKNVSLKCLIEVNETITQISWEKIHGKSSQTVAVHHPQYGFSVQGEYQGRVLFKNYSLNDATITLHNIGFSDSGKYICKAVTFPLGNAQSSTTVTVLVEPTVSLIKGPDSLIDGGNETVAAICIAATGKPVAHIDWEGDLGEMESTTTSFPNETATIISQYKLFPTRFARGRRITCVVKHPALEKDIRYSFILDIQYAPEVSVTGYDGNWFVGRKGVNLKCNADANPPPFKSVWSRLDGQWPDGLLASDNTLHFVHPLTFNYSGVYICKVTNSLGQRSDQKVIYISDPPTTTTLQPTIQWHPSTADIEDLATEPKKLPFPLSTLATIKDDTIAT

binding result	Binder
binds	Nec1-Fc (Fc fusion, human, UniProt Q15223 31-355, looked up, Nectin-1 (CD111), human, soluble form fused to Fc; Probably the extracellular domain; also called Nectin-1; CD111; source: COS cells, transfected, purified from supernatants on Affi-Gel protein A) QVVQVNDSMYGFIGTDVVLHCSFANPLPSVKITQVTWQKSTNGSKQNVAIYNPSMGVSVLAPYRERVEFLRPSFTDGTIRLSRLELEDEGVYICEFATFPTGNRESQLNLTVMAKPTNWIEGTQAVLRAKKGQDDKVLVATCTSANGKPPSVVSWETRLKGEAEYQEIRNPNGTVTVISRYRLVPSREAHQQSLACIVNYHMDRFKESLTLNVQYEPEVTIEGFDGNWYLQRMDVKLTCKADANPPATEYHWTTLNGSLPKGVEAQNRTLFFKGPINYSLAGTYICEATNPIGTRSGQVEVNITEFPYTPSPPEHGRRAGPVPTA
binds	Nec2-Fc (Fc fusion, human, UniProt Q92692 32-360, looked up, Nectin-2 (CD112), human, soluble form fused to Fc; Probably the extracellular domain; also called Nectin-2; CD112; source: COS cells, transfected, purified from supernatants on Affi-Gel protein A) QDVRVQVLPEVRGQLGGTVELPCHLLPPVPGLYISLVTWQRPDAPANHQNVAAFHPKMGPSFPSPKPGSERLSFVSAKQSTGQDTEAELQDATLALHGLTVEDEGNYTCEFATFPKGSVRGMTWLRVIAKPKNQAEAQKVTFSQDPTTVALCISKEGRPPARISWLSSLDWEAKETQVSGTLAGTVTVTSRFTLVPSGRADGVTVTCKVEHESFEEPALIPVTLSVRYPPEVSISGYDDNWYLGRTDATLSCDVRSNPEPTGYDWSTTSGTFPTSAVAQGSQLVIHAVDSLFNTTFVCTVTNAVGMGRAEQVIFVRETPNTAGAGATGG
binds	PVR-Fc (Fc fusion, human, UniProt P15151 21-343, looked up, PVR (CD155, Necl-5), human, soluble form fused to Fc; Probably the extracellular domain; also called CD155; Necl-5; source: COS cells, transfected, purified from supernatants on Affi-Gel protein A) WPPPGTGDVVVQAPTQVPGFLGDSVTLPCYLQVPNMEVTHVSQLTWARHGESGSMAVFHQTQGPSYSESKRLEFVAARLGAELRNASLRMFGLRVEDEGNYTCLFVTFPQGSRSVDIWLRVLAKPQNTAEVQKVQLTGEPVPMARCVSTGGRPPAQITWHSDLGGMPNTSQVPGFLSGTVTVTSLWILVPSSQVDGKNVTCKVEHESFEKPQLLTVNLTVYYPPEVSISGYDNNWYLGQNEATLTCDARSNPEPTGYNWSTTMGPLPPFAVAQGAQLLIRPVDKPINTTLICNVTNALGARQAELTVQVKEGPPSEHSGISRN
